“Also recorded” adds a separate entry of the source.
Tested on: Staphylococcus aureus ATCC 6538
Assay: Modified ASTM E2315 test of low pH therapeutic with AMPs, acid neutralized after one minute
Assay type: cell-based
Source text: Since the reaction speed of the two different MOAs are different, a modified test protocol was developed, which is summarized below. • a. […] Heretofore, it has been believed that AMPs are unstable in low pH environments. Mixture of dry powder immediately prior to use is believed to address concerns regarding minimization of in vitro stability. • b. The prepared AMP solution was then mixed with the bacteria containing media. After one minute the acid solution was neutralized. This simulates the short antimicrobial period for the elevated proton concentration in vivo. The bacteria population was measured to determine efficacy after one minute. • c. The AMPs retained in the solution are not expected to stop their antimicrobial activity after acid neutralization, so a second bacteria population measurement was made after 24 hours. [table]

B1: lactoferrin (protein, UniProt P02788 20-710, looked up)
Lactotransferrin: GRRRSVQWCAVSQPEATKCFQWQRNMRKVRGPPVSCIKRDSPIQCIQAIAENRADAVTLDGGFIYEAGLAPYKLRPVAAEVYGTERQPRTHYYAVAVVKKGGSFQLNELQGLKSCHTGLRRTAGWNVPIGTLRPFLNWTGPPEPIEAAVARFFSASCVPGADKGQFPNLCRLCAGTGENKCAFSSQEPYFSYSGAFKCLRDGAGDVAFIRESTVFEDLSDEAERDEYELLCPDNTRKPVDKFKDCHLARVPSHAVVARSVNGKEDAIWNLLRQAQEKFGKDKSPKFQLFGSPSGQKDLLFKDSAIGFSRVPPRIDSGLYLGSGYFTAIQNLRKSEEEVAARRARVVWCAVGEQELRKCNQWSGLSEGSVTCSSASTTEDCIALVLKGEADAMSLDGGYVYTAGKCGLVPVLAENYKSQQSSDPDPNCVDRPVEGYLAVAVVRRSDTSLTWNSVKGKKSCHTAVDRTAGWNIPMGLLFNQTGSCKFDEYFSQSCAPGSDPRSNLCALCIGDEQGENKCVPNSNERYYGYTGAFRCLAENAGDVAFVKDVTVLQNTDGNNNEAWAKDLKLADFALLCLDGKRKPVTEARSCHLAMAPNHAVVSRMDKVERLKQVLLHQQAKFGRNGSDCPDKFCLFQSETKNLLFNDNTECLARLHGKTTYEKYLGPQYVAGITNLKKCSTSPLLEACEFLRK
1-min Efficacy (log) (bacteria population after one minute, then acid neutralized, no soiling, single-replicant): 0.05 log
Efficacy on S. aureus, conclusion in words (comparison of Table 3 examples): minimal efficacy; also recorded: not effective
24-hour Efficacy (log) (second bacteria population measurement after 24 hours, acid neutralized after one minute): 0.16 log

— US20240000899A1, “THERAPEUTIC USEFUL AGAINST ANTIMICROBIAL RESISTANT AGENTS” (priority 2022, published 2024)
